Assay [1] has as its target T1, hTie2 (Ig2-EGF) (human, UniProt Q02763 121-344).
T1 construct: Domain-deletion construct linked to Luminex beads
The assay is described as follows: Luminex bead binding. Here is the method:
(§1) For binding, 25 μl of anti-Tie2 antibody (25 μg/ml) was added to 75 μl of the above created Luminex bead mixture (3×10³ beads per construct) in binding buffer (PBS, 0.05% Tween 20, 1 mg/ml BSA, 0.05% sodium azide) into a 96 well filter plate (Millipore). Incubation was at room temperature (RT) for 90 min or overnight at 4° C. with shaking. The beads were washed 3× with washing buffer (PBS+0.05% Tween 20) resuspended in 100 μl binding buffer containing PE (phycoerythrine)-labeled anti human kappa or PE-labeled anti mouse Fab secondary antibody and incubated at RT for 45 min with shaking. Samples were washed 2× more and binding signal (MFI) for each bead was determined using a Luminex L200 or FLEXMAP3D instrument. Bead linked human Tie2 was used as positive control and bead linked human Tie1 was used to measure family cross-reactivity. In general MFI signals greater than 500 units represent significant binding.

The target in assay [2] is T2, hTie2 (EGF) (human, UniProt Q02763 210-344).
T2 construct: Domain-deletion construct linked to Luminex beads
The assay is described as follows: Luminex bead binding. The method, then:
as §1

In assay [3] the target is T3, hTie2 (Ig1-Ig2-EGF) (human, UniProt Q02763 24-344).
T3 construct: Domain-deletion construct; also used for H/D exchange
The assay can be described thus: Luminex bead binding. The method, then:
as §1

The target of assay [4] is hTie2 on 293-Tie2/SRE-Luc cells (human, UniProt Q02763 23-1124). The assay is described as follows: cell-based or functional assay.
Assay [5] has as its target T4, mTie2-hFc (mouse).
T4 construct: also called mouse Tie2
The assay is described as follows: SPR Biacore 25C, mAb captured. The method, then:
(§2) (Tables 3-6). Measurements were conducted on a Biacore 2000 or T200 instrument.
(§3) For antibodies with a mouse constant region (designated H1M or H2M), antibodies were immobilized onto an anti-mouse Fc sensor surface and different concentrations of human, mouse or rat Tie2 constructs (hTie2-His, mTie2-hFc and rTie2-hFc) were injected over the antibody captured surface. For antibodies in the human IgG format (designated H1H or H4H), either an anti-human Fc sensor surface (hTie2-His and hTie2-mFc) or anti-human Fab sensor surface (mTie2-hFc and rTie2-hFc) was employed depending on the Tie-2 construct applied to the antibody captured surface. Amino acid sequences of the constructs used in this Example are as follows: hTie2-His (SEQ ID NO:2); hTie2-hFc (SEQ ID NO:3); hTie2-mFc (SEQ ID NO:4); rTie2-hFc (SEQ ID NO:5); and mTie2-hFc (SEQ ID NO:6).
(§4) Kinetic rate constants—association rate (ka) and dissociation rate (kd) were determined by fitting the real time binding sensorgrams to a 1:1 binding model with mass transport limitation using Scrubber 2.0 curve fitting software. The equilibrium dissociation constant (KD) and dissociative half-life (T½) were calculated from the kinetic rate constants as: KD (M)=kd/ka; and T½ (min)=(In2/(60*kd).).

Assay [6] deals with T5, rTie2-hFc (rat).
T5 construct: also called rat Tie2
The assay is described as follows: SPR Biacore 25C, mAb captured. The method, then: as §2, §3, §4
A general note: SPR reads the build-up and loss of mass on a sensor chip optically.

The target in assay [7] is T6, mAng3 (mouse, UniProt Q9WVH6 22-509, limits assumed).
T6 construct: Bought protein; also called angiopoietin 3
T6 sequence (looked up): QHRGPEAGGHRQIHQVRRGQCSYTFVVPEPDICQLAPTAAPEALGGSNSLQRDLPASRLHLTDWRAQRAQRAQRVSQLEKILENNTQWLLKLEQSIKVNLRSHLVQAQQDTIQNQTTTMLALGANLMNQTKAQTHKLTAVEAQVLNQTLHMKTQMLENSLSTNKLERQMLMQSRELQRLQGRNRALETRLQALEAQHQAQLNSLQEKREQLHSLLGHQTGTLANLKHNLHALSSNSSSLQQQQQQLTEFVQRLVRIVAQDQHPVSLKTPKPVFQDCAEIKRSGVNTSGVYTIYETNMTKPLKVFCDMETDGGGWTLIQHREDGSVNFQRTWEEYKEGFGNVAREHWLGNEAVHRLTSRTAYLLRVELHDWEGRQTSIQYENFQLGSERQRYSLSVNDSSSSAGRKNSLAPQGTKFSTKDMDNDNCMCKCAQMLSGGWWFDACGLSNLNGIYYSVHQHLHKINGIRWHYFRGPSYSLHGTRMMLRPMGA
The assay is described as follows: Octet Red biosensor, hTie2.mFc captured on anti-mFc tips, 100 nM angiopoietin for 5 min; some tips first saturated with 300 nM H4H2055N or Control I. Here is the method:
(§5) A further set of experiments was conducted to evaluate the ability of H4H2055N to block Tie2 binding to Ang2 and other members of the angiopoietin family (Ang1, Ang3 and Ang4). In this set of experiments, an Octet Red biosensor was employed using two experimental formats. In the first format, hTie2.mFc (SEQ ID NO:4; 10 μg/ml) or a negative control was captured on anti-mFc Octet sensor tips for 5 min. The captured sensor tip surfaces were then saturated with H4H2055N or Control I antibody by dipping into wells containing 300 nM of respective monoclonal antibodies for 10 min. Finally the sensor tips were placed into wells containing 100 nM of hAng1 (R&D Systems, Inc., Minneapolis, Minn., Cat 923-AN/CF; Accession #Q5HYA0), hAng2 (R&D Systems, Inc., Minneapolis, Minn., Cat 623-AN/CF; Accession #015123), mAng3 (R&D Systems, Inc., Minneapolis, Minn., Cat 738-AN/CF; Accession #Q9WVH6) or hAng4 (R&D Systems, Inc., Minneapolis, Minn., Cat 964-AN/CF; Accession Q9Y264) for 5 min. Binding response at each step of the experiment was monitored and the binding of different angiopoietins to the monoclonal antibody saturated receptor surfaces was plotted (FIG. 2). As illustrated by FIG. 2, H4H2055N blocked the binding of all four angiopoietins to the hTie2.mFc surface.

The target in assay [8] is T7, hAng2 (human, UniProt O15123 19-496, limits assumed).
T7 construct: Bought protein; also called angiopoietin 2
T7 sequence (looked up): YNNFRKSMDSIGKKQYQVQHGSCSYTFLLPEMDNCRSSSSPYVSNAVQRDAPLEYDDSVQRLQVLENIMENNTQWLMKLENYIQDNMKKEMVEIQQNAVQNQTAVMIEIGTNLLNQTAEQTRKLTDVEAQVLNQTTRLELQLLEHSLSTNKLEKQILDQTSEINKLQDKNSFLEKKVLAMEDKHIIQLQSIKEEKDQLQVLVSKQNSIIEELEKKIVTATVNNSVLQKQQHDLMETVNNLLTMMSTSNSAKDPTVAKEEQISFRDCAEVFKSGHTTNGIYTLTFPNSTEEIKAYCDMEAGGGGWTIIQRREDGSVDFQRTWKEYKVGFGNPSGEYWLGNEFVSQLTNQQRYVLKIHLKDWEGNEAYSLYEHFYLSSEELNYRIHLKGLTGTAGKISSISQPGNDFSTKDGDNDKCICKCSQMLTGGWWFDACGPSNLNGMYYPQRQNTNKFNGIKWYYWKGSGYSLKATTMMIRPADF
The description is as above. Here is the method:
as §5

Assay [9] addresses T8, hAng4 (human, UniProt Q9Y264 25-503, limits assumed).
T8 construct: Bought protein; also called angiopoietin 4
T8 sequence (looked up): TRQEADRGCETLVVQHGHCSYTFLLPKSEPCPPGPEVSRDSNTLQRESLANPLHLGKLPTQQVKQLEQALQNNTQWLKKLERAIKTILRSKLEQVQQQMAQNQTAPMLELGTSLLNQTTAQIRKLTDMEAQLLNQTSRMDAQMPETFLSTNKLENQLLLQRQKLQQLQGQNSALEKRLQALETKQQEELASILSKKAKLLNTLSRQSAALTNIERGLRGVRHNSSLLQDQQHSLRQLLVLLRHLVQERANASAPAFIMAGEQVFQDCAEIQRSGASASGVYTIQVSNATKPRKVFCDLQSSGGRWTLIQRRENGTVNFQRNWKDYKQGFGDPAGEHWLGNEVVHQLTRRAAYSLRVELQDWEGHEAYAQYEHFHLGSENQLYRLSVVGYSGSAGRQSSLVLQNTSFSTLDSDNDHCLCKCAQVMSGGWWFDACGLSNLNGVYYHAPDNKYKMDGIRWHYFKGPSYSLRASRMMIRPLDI
The assay is described as above. The method, then: as §5

T5 sequence (chain, as listed by the source limits assumed): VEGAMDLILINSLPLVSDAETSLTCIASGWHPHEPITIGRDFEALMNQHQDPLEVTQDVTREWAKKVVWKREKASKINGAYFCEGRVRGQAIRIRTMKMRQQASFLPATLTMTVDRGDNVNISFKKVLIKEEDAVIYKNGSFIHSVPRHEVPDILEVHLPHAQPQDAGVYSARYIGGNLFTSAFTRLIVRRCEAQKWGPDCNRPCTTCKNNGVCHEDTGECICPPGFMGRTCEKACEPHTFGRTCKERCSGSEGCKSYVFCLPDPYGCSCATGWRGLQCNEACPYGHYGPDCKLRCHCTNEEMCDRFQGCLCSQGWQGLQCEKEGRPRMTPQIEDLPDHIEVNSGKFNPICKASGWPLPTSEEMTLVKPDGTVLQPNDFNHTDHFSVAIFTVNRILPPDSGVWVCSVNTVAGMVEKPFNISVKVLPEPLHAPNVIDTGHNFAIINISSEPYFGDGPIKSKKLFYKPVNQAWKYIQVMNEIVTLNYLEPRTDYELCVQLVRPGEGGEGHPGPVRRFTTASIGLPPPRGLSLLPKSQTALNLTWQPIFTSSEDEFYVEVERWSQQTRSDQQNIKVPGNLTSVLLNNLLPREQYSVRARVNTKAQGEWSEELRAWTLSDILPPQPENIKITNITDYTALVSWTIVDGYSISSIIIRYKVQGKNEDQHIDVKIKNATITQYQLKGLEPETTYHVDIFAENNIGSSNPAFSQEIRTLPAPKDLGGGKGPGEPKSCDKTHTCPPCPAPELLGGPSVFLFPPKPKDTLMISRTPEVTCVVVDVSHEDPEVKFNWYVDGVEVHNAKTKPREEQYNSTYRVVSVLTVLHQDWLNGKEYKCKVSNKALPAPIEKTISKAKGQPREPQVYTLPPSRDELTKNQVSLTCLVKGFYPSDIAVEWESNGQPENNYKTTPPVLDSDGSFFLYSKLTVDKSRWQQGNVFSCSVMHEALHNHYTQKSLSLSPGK
T2 sequence (Q02763 other isoform, or with tags, fused parts or gaps limits assumed): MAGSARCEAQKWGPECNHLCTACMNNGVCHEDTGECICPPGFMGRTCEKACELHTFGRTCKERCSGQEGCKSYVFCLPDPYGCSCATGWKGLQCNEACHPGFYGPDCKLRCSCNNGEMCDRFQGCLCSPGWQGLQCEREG
T1 sequence (Q02763 other isoform, or with tags, fused parts or gaps limits assumed): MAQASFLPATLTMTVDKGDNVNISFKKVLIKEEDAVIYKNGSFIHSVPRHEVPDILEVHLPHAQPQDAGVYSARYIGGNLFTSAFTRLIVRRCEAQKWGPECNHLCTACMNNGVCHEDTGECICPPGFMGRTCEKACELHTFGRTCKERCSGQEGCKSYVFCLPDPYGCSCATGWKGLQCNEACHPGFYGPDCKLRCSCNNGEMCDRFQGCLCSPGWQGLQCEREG

B1: H1H2332B (antibody, V domains shown)
VH: QVQLQESGPGLVKPSETLSLTCTVSGASISSYYWTWFRQPPGQGLEWIGYIYYSGSTNYNPSLKSRVTISVDTSMNQFSLKLTSVTAADTAVYYCARQGGYTSSLFDYWGQGTLVTVSS
VL: DIQMTQSPSSLSASVGDRVTITCRASQSISSYLNWYQQKPGKAPKLLIYVVSSLQSGVPSRFSGSGSGTDFTLTISSLQPEDFATYYCQQSYSIPWTFGQGTKVEIK
notes: Tested as H1H2332B (human IgG format, H1H prefix)
On to B1, for which the binding result in assay [1] was “no binding (tested: MFI >500 = significant binding)”. For the same molecule, the binding result in assay [2] is listed as “no binding (tested: MFI >500 = significant binding)”. For the same molecule, the binding result in [3] is “no binding (tested: MFI >500 = significant binding)”. Further, in [4], the “EC50, Tie2 dependent luciferase activity, 293-Tie2/SRE-Luc cells with 1 nM BowAng1” value is 2.5 nM and the “EC50, Tie2 dependent luciferase activity, 293-Tie2/SRE-Luc cells with 1 nM BowAng2” value is 3.7 nM. In assay [5], the dissociation constant Kd came out at 107 nM, the “T½” value came out at 2 min, the koff is 0.00576 s⁻¹ and the on-rate constant (kon) was found to be 53900 M⁻¹ s⁻¹. Moreover, in assay [6], the Kd amounted to 55.3 nM, the “T½” value was 2 min, the koff worked out at 0.00618 s⁻¹ and the kon amounted to 112000 M⁻¹ s⁻¹.

B2: hTie2-mFc (Fc fusion)
chain: AMDLILINSLPLVSDAETSLTCIASGWRPHEPITIGRDFEALMNQHQDPLEVTQDVTREWAKKVVWKREKASKINGAYFCEGRVRGEAIRIRTMKMRQQASFLPATLTMTVDKGDNVNISFKKVLIKEEDAVIYKNGSFIHSVPRHEVPDILEVHLPHAQPQDAGVYSARYIGGNLFTSAFTRLIVRRCEAQKWGPECNHLCTACMNNGVCHEDTGECICPPGFMGRTCEKACELHTFGRTCKERCSGQEGCKSYVFCLPDPYGCSCATGWKGLQCNEACHPGFYGPDCKLRCSCNNGEMCDRFQGCLCSPGWQGLQCEREGIPRMTPKIVDLPDHIEVNSGKFNPICKASGWPLPTNEEMTLVKPDGTVLHPKDFNHTDHFSVAIFTIHRILPPDSGVWVCSVNTVAGMVEKPFNISVKVLPKPLNAPNVIDTGHNFAVINISSEPYFGDGPIKSKKLLYKPVNHYEAWQHIQVTNEIVTLNYLEPRTEYELCVQLVRRGEGGEGHPGPVRRFTTASIGLPPPRGLNLLPKSQTTLNLTWQPIFPSSEDDFYVEVERRSVQKSDQQNIKVPGNLTSVLLNNLHPREQYVVRARVNTKAQGEWSEDLTAWTLSDILPPQPENIKISNITHSSAVISWTILDGYSISSITIRYKVQGKNEDQHVDVKIKNATIIQYQLKGLEPETAYQVDIFAENNIGSSNPAFSHELVTLPESQAPADLGGGKGPGEPRGPTIKPCPPCKCPAPNLLGGPSVFIFPPKIKDVLMISLSPIVTCVVVDVSEDDPDVQISWFVNNVEVHTAQTQTHREDYNSTLRVVSALPIQHQDWMSGKEFKCKVNNKDLPAPIERTISKPKGSVRAPQVYVLPPPEEEMTKKQVTLTCMVTDFMPEDIYVEWTNNGKTELNYKNTEPVLDSDGSYFMYSKLRVEKKNWVERNSYSCSVVHEGLHNHHTTKSFSRTPGK
As for B2, the binding result in [7], in [8] and in [9] was “binds” each time.

In general, Kd refers to the free concentration of one partner at which half of the binding sites on the other are occupied at equilibrium, for simple one-to-one binding. A high value points to weaker binding. A word on the koff: it is the rate constant with which the complex falls apart. Low readings indicate slow dissociation, high ones fast dissociation. The kon is a measure of how fast the partners come together. A low value points to slow association.

For the origin of these results see patent publication US20170174789A1 (Regeneron, published 2017).
